Results as given in article PMC5428419.

Biological target: biotinylated sRAGE from transgenic silkworms co-expressing BirA and fed biotin bait (human) (UniProt Q15109)
Test: SPR; Biacore 2000; biotinylated sRAGE on SA sensor chip via the C-terminal biotin, about 560 RU; F-AGEs 0.25-4 uM injected, single-cycle kinetics, 30 uL/min, 25 C, PBS (-); 1:1 Langmuir model

Chain of UniProt Q15109 (Q15109 23-332): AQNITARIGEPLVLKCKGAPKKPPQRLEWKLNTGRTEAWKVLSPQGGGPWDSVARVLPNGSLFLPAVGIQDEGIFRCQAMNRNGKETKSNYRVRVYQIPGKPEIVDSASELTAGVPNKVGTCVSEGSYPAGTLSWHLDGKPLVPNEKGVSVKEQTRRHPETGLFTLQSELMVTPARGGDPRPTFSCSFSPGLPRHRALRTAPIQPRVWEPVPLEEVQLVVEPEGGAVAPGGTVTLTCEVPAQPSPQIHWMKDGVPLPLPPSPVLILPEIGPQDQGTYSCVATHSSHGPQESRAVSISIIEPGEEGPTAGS

## fructose-BSA (fructose-derived AGE-BSA) (from UniProt P02769 25-607) (ligand)
  Kd: 0.725 µM
  koff: 0.00165 s⁻¹
  kon: 7250 M⁻¹ s⁻¹
